US20120093811A1 (published 2012)

How the values were obtained:
[1] = target: T1, Source 1 VEGF-D, mature dimeric recombinant human VEGF-D (CSIRO) (human, UniProt O43915 89-205); assay: SPR Protocol B, KD against that of the murine antibody
T1 construct: Whole entry named; also called Source 1 VEGF-D dimer; VEGF-D dimer
T1 sequence: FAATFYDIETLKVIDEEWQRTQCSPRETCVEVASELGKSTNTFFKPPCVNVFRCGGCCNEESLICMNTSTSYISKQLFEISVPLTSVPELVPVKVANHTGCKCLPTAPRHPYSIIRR
Description: (§1) Protocol B: In the second assay format, Protocol B, the orientation of the IgGs and the VEGF-D antigen was reversed relative to Protocol A. The Source 1 VEGF-D dimer was immobilized directly on the chip surface by amine coupling and the murine anti-VEGF-D monoclonal antibody, Ig-1A or IgG variants flowed over this surface as analytes at concentrations of 4 nM, 1.33 nM, and 0.44 nM. This protocol allowed avidity effects to be controlled by reducing the density of dimeric VEGF-D immobilized on the chip and in effect reduce the bivalent binding properties of the system being analyzed.
All four flow cells on a CM5 chip were activated for 7 min at 25° C. using a mixture of NHS.EDC. Flow cell one was used as an unmodified (activated and blocked) reference against flow cells 2-4. […]
All IgG binding experiments were performed at 25° C. using HBS-EP+ running buffer. Analytes (murine reference anti-VEGF-D monoclonal antibody and humanized variants) were injected for 200 s at a flow rate of 70 μl/min and dissociation monitored for 250 s. […] Binding constants for the IgG/antigen interactions were determined from the three antigen surfaces globally fitted to a 1:1 interaction model. […]

[2] = target: T1, Source 1 VEGF-D, mature dimeric …; assay: cell-based or functional assay
[3] = target: T2, Source 2 VEGF-D, purified recombinant human VEGF-D monomer (R&D Systems, Catalog Number 622-VD/CF) (human, UniProt O43915 93-201); assay: cell-based or functional assay
T2 sequence: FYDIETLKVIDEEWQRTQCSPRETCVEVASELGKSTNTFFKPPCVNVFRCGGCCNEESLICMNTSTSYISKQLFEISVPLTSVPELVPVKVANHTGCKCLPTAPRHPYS

[4] = target: T1, Source 1 VEGF-D, mature dimeric …; assay: SPR Protocol A, KD against that of Ig-1A
[5] = target: T1, Source 1 VEGF-D, mature dimeric …; assay: SPR Protocol B, KD against that of Ig-1A
Description: as §1
(§2) All four flow cells on a CM5 chip were activated for 7 min at 25° C. using a mixture of NHS.EDC. Flow cell one was used as an unmodified (activated and blocked) reference against flow cells 2-4. Source 1 VEGF-D dimer was diluted to 1-3 μg/ml into 10 mM sodium acetate, pH 4, and injected over three surfaces for different lengths of time to achieve low ligand densities of 10, 15 and 20 RU to minimize avidity effects of the IgG. All surfaces were blocked for 7 min with ethanolamine (1M, pH 8.2) and pre-conditioned using five 10 s injections of 100 mM H₃PO₄; 1M NaCl. Immobilization steps were carried out at a flow rate of 30 μl/min using HBS-N running buffer.
(§3) All IgG binding experiments were performed at 25° C. using HBS-EP+ running buffer. Analytes (murine reference anti-VEGF-D monoclonal antibody and humanized variants) were injected for 200 s at a flow rate of 70 μl/min and dissociation monitored for 250 s. The antigen surfaces were regenerated with a 10 s pulse of 100 mM H₃PO₄; 1M NaCl. Analyte concentrations used for murine and humanized variants were 4 nM, 1.33 nM, and 0.44 nM. Data was processed using the reference surface and double referencing from blank injections. Binding constants for the IgG/antigen interactions were determined from the three antigen surfaces globally fitted to a 1:1 interaction model. Refractive index parameter was constant (RI=0).

[6] = target: T1, Source 1 VEGF-D, mature dimeric …; assay: SPR Protocol B: VEGF-D dimer amine-coupled, IgG as analyte
Description: as §1, §2, §3

[7] = target: T1, Source 1 VEGF-D, mature dimeric …; assay: SPR Protocol A: IgG captured by anti-human Fc, VEGF-D dimer as analyte
[8] = target: T1, Source 1 VEGF-D, mature dimeric …; assay: SPR Protocol A, KD against that of the murine antibody

fold improvement over the original murine anti-VEGF-D monoclonal antibody [1]: 11.5 fold
rank in the VEGFR-3-Ba/F3 bioassay [2]: 7 rank
rank in the VEGFR-3-Ba/F3 bioassay [3]: 5 rank
Fold-improvement with respect to Ig-1A [4]: 5.5 fold
Fold-improvement with respect to Ig-1A [5]: 4.4 fold
Kd [6]: 0.4 nM
koff [6]: 0.0019 s⁻¹
kon [6]: 4.8e+06 M⁻¹ s⁻¹
Kd [7]: 0.127 nM
koff [7]: 5.8e-05 s⁻¹
kon [7]: 460000 M⁻¹ s⁻¹
fold improvement over the original murine anti-VEGF-D monoclonal antibody [8]: 23.6 fold
B1: humanized IgG antibody derived from clone HU75 (antibody, V domains shown)
VH: QVQLVQSGAEVKQPGASVKVSCKASGYTFTGYNMYWVRQAPGQGLEWMGYIDPYNGDTTYNQKFKGRVTMTTDTSTSTAYMKLRSLRSDDTAVYYCARTSYYGGMDYWGRGTLVTVAS
VL: DIVMTQTPLSGPVTLGQPASISCRSSQSLVHSNGNTYLHWLQQRPGQPPRLLIYKVSNRFSGVPDRFSGSGAGTDFTLKISRVEAEDVGVYYCSQSTHVPRTFGRGTKLEIKR
notes: IgG
